Values joined by “and” are separate entries in the source; they are usually repeats but may differ in a detail not shown here. Equal values may be shown once.
T1: LNX2 PDZ2 domain (residues 334-426) (human, UniProt Q8N448 334-426)
T1 sequence: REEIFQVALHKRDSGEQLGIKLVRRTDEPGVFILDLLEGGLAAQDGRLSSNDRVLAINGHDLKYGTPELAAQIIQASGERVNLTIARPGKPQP

T2: MPP5 PDZ domain (residues 238-336) (human, UniProt Q8N3R9 238-336)
T2 sequence: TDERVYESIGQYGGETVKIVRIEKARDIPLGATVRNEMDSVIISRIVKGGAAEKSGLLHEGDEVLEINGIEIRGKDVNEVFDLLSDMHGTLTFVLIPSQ

B1: C-terminal SARS-CoV-2-E PBM peptide (12-mer, original strain) (peptide)
peptide: NLNSSRVPDLLV
B2: ZO-1 PDZ2 domain (residues 184-264) (domain or fragment)
chain: PTKVTLVKSRKNEEYGLRLASHIFVKEISQDSLAARDGNIQEGDVVLKINGTVTENMSLTDAKTLIERSKGKLKMVVQRDE

Assays:
[1] = target: MLLT4 PDZ domain (residues 961-1056) (human) (UniProt P55196); test: MST
[2] = target: B2; test: MST
[3] = target: T1, LNX2 PDZ2 domain (residues 334-426); test: MST
[4] = target: PARD3 PDZ3 domain (residues 582-685) (human, UniProt Q8TEW0 582-685); test: MST
PARD3 PDZ3 domain (residues 582-685), sequence (Q8TEW0 582-685): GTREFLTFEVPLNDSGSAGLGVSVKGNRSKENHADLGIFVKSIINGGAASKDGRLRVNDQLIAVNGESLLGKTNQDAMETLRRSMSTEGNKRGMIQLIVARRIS

[5] = target: T2, MPP5 PDZ domain (residues 238-336); test: MST
AUC = target: the molecule itself; test: AUC

“C-terminal SARS-CoV-2-E PBM peptide (12-mer, original strain)” showed a Kd [1] of 569 µM.

Work on B1 yielded a Kd [2] of 15 µM, a Kd [3] of 289 µM and a Kd [4] of 341 µM. It also gave a Kd [5] of 30 µM.

B2 was tested, and the “stoichiometry N” value (AUC) was 2 and ~4.
